Experimental data reported in patent US20240277818A1, “COMPOSITION INCLUDING A METAL-ORGANIC FRAMEWORK (MOF) NANOPARTICLE FOR ORAL PROTEIN ADMINISTRATION” (UNIVERSITY OF NORTH TEXAS, priority 2023, published 2024).

What was measured:
blood glucose levels = test: In vivo pharmacodynamics of PCN-777 nanosystems in rats; parameters: species or system SD rats; settings: diabetic rats
Procedure: Animal models and diabetes induction were undertaken. Male Sprague Dawley rats (180-200 g) and BALB/c mice (18-20 g) were provided by Beijing Vital River Laboratory Animal Technology Co. Ltd. New Zealand rabbits (2-2.5 kg) were provided in all the animal studies were conducted following the Chinese Regulations for the Administration of Affairs Concerning Experimental Animals and performed in compliance with the guidelines of the Institutional Animal Care and Use Committee (IACUC) of Wuhan University. To establish an alloxan-induced diabetic rat model, healthy rats were intravenously injected with alloxan 50 mg/kg once and the blood glucose changes were monitored daily to confirm their diabetic status. After seven days, the blood glucose was stable at 20 mmol/L, proving the diabetes model was successfully established. The difference between the establishment of diabetes models of mice and rabbits was that the dosage of alloxan in mice and rabbits is 100 mg/kg. […] INS bioactivity in vivo was undertaken. In vivo studies were performed in alloxan-induced diabetic rats (n=five per group) and rabbits (n=three per group). […] At predetermined time intervals, blood samples were collected for glucose testing using a blood glucose meter. Serum insulin level was determined using a bovine INS ELISA kit. […]

trypsin = test: Protection of INS from trypsin degradation by UiO-68-NH2 nanosystems; settings: trypsin-containing HBSS buffer, 37 °C, 1 h
Procedure: To determine whether UiO-68-NH2 could protect INS from digestive enzymes, the NPs were incubated in simulated intestinal fluid containing trypsin (1 mg/mL) at 37° C. Aliquots (100 μL) at specific time intervals were taken out and added 200 μL of DMSO containing 0.1% trifluoroacetic acid to stop the enzymatic reaction. The concentration of INS was determined with the Elisa kit in all the following experiments.
Aliquots (100 μL) were removed at specified time intervals, 200 μL of DMSO containing 0.1% trifluoroacetic acid was added to stop the enzymatic reaction, and the concentration of insulin in the solution was determined using an Elisa kit.

Caco-2 cell monolayers = test: Lysosomal degradation of INS in cell monolayers, UiO-68-NH2 nanosystems; format: cell-based, human; settings: 2 h incubation
[1] = In vivo fluorescence imaging and biodistribution of RITC-INS formulations (UiO-68-NH2); parameters: species or system mice; rats
Procedure: RITC-INS, RITC-INS@U, T@RITC-INS@U were orally administered to the overnight fasted mice for in vivo fluorescence imaging. The fluorescence images of mice were captured at different time points using the SI Imaging Amix imaging system to evaluate the metabolic process of INS preparations. Another group of mice was sacrificed after 4 h of treatment. The images of organs and intestines were also obtained. Different formulations were orally administered to the overnight fasted rats for 4 h. Then the rats were sacrificed, and the intestine loops were excised and frozen in Tissue-Tek OCT with liquid nitrogen. Cross intestine sections were obtained using a freezing microtome blade and then stained the intestine sections with DAPI for 10 min and visualized by CLSM.

blood glucose level = test: In vivo pharmacodynamics, blood glucose after T@I@U, I@U and free INS; parameters: species or system alloxan-induced diabetic rats and mice
Procedure: In vivo INS bioactivity studies were performed in alloxan-induced diabetic animals (n=six per group). The rats and mice were induced to type I diabetes by alloxan injections. The animals were regarded as diabetic if their fasting blood glucose levels were higher than 11 mmol/L in one week after injection.

[2] = In vivo fluorescence imaging and biodistribution of PCN-777 formulations; parameters: species or system mice; rats; settings: 12 h after administration
Excerpt: In vivo fluorescence imaging is undertaken. RITC-INS, RITC-INS@P, and R-I@F-P were orally administered to the overnight fasted diabetic mice or normal mice. The SI Imaging Amix imaging system was used to assess the distribution and metabolism of INS preparations in mice with different intestinal expressions of PCFT at different time points. Another group of diabetic mice or normal mice was sacrificed twelve hours after RITC-INS, RITC-INS@P, and R-I@F-P treatment, and the organs and intestines were collected and observed. The same procedure was done to diabetic rats. The intestine loops of the RITC-INS, RITC-INS@P, and R-I@F-P medicated rats were collected by the same procedure and frozen in Tissue-Tek OCT with liquid nitrogen. Intestinal sections were obtained using a cryostat and visualized by CLSM after staining with DAPI for 10 min.

[3] = system: Caco-2 cell monolayers with high or low expression of PCFT; test: Transepithelial transport, TEER and INS degradation, PCN-777 nanosystems; settings: 48 h of incubation
Procedure: The transepithelial transport studies were conducted following previously reported procedures. In short, the Caco-2 cells were cultured in transwell inserts for 21 days till the TEER values reached above 300Ω×cm^2. Caco-2 cell monolayers with high or low expression of PCFT were co-incubated with Free INS and I@P and I@F-P on the apical side for 48 hours. An amount of 100 μL of the sample was taken out from the basolateral side at different time intervals and 100 μL of DMEM was always supplemented to maintain a consistent volume. After 48 hours of incubation, samples of the apical and basolateral layers were collected respectively, and the cell monolayer was lysed with RIPA lysate and collected. The INS contents in each sample were then tested utilizing the bovine insulin ELISA kit. The degradation rate of INS in different preparations were calculated according to the following equation:
where m(total) is the total mass of INS added, m(apical) is the mass of INS in the apical layer, m(basolateral) is the mass of INS in the basolateral layer, and m(inside) is the mass of INS in the cell monolayer.

[4] = In vivo pharmacokinetics, serum INS (UiO-68-NH2 nanosystems)
Procedure: The rats and mice fasted overnight before experiments and then administered different samples by gavage. The […] effect was tested following the oral administration of I@U and T@I@U (20 IU/kg). As control groups, one group of rats were administered free INS (20 IU/kg) by oral gavage, and the other group was administered free INS (5 IU/kg) by s.c. injection. Blood samples were collected from the orbital venous plexus and analyzed using a blood glucose meter, expressed as the percentage of baseline serum glucose level (0 h) at different periods. The INS contents in blood samples were measured using the bovine INS ELISA kit. The 0 h INS content was subtracted from the INS measured at different time intervals and plotted.
Hypoglycemic effects (FIG. 7A, B) and insulin levels in the serum of SD rats (FIG. 7C) were tested after administration of equal amounts of insulin I @ U and T @ I @ U (20IU/kg) to diabetic mice (BALB/C mice) and rats (SD rats) by gavage. As a control group, one group of rats was administered insulin (20 IU/kg) by gavage, and the other group was administered insulin (5 IU/kg) by subcutaneous injection.

[5] = in vivo; cited from earlier work

| Substance | glucose response (blood glucose levels; oral administration) | time to restoration of high blood glucose levels (blood glucose levels; subcutaneous injection) | active INS remaining (trypsin) | ingested INS degraded (Caco-2 cell monolayers) | INS fluorescence in major organs / liver ([1]; 4 h after oral administration) | INS fluorescence in sectioned intestine epithelial tissue ([1]; confocal imaging, 2 h after administration) | blood glucose response (blood glucose level; oral gavage, 20 IU/kg) | time after which hypoglycemic effect wears off (blood glucose level; subcutaneous 5 IU/kg) | blood glucose level, % of the initial level (blood glucose level; subcutaneous 5 IU/kg, at 2 h) | fluorescence in intestine epithelial tissue sections [2] | degradation of ingested INS [3] | relative (oral) bioavailability ([4]; oral 20 IU/kg versus s.c. free INS 5 IU/kg) | time of maximum serum INS level ([4]; subcutaneous 5 IU/kg) | time of return of serum INS to minimum ([4]; subcutaneous 5 IU/kg) | duration of action [5] |
| --- | --- | --- | --- | --- | --- | --- | --- | --- | --- | --- | --- | --- | --- | --- | --- |
| insulin [free INS] | fail to generate a significant glucose response | ≤ 4 h | almost completely degraded | about 50% | does not show any fluorescence signal | barely any fluorescence | fails to reduce the blood glucose level | 4 h | about 28% | only weak fluorescence | almost completely degrades | 0.7% | ≤ 1 h | 4 h |  |
| regular insulin: regular insulin (INS) as used by injection in diabetics |  |  |  |  |  |  |  |  |  |  |  |  |  |  | 4 to 8 h |
